{"source": "patent US20230414619", "target": "Flag-tagged METTL3, Q86U44", "sequence (Q86U44 whole entry)": "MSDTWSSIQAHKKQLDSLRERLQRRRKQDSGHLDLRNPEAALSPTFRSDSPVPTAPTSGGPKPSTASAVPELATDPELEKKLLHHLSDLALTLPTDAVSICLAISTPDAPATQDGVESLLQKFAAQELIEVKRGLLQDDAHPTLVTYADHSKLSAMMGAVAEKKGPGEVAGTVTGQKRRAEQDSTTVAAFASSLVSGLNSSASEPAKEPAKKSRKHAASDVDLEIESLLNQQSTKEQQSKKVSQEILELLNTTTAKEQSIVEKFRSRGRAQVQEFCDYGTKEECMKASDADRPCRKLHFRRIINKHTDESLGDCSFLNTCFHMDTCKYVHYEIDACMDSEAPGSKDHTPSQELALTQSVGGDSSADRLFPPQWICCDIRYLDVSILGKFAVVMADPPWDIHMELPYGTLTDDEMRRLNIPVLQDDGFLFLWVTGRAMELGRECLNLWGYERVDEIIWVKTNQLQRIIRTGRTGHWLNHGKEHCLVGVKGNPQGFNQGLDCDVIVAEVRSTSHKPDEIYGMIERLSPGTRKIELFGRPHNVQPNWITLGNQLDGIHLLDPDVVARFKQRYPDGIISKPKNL"}
{"protein": "HA-tagged G9a (protein) MAAAAGAAAAAAAEGEAPAEMGALLLEKETRGATERVHGSLGDTPRSEETLPKATPDSLEPAGPSSPASVTVTVGDEGADTPVGATPLIGDESENLEGDGDLRGGRILLGHATKSFPSSPSKGGSCPSRAKMSMTGAGKSPPSVQSLAMRLLSMPGAQGAAAAGSEPPPATTSPEGQPKVHRARKTMSKPGNGQPPVPEKRPPEIQHFRMSDDVHSLGKVTSDLAKRRKLNSGGGLSEELGSARRSGEVTLTKGDPGSLEEWETVVGDDFSLYYDSYSVDERVDSDSKSEVEALTEQLSEEEEEEEEEEEEEEEEEEEEEEEEDEESGNQSDRSGSSGRRKAKKKWRKDSPWVKPSRKRRKREPPRAKEPRGVNGVGSSGPSEYMEVPLGSLELPSEGTLSPNHAGVSNDTSSLETERGFEELPLCSCRMEAPKIDRISERAGHKCMATESVDGELSGCNAAILKRETMRPSSRVALMVLCETHRARMVKHHCCPGCGYFCTAGTFLECHPDFRVAHRFHKACVSQLNGMVFCPHCGEDASEAQEVTIPRGDGVTPPAGTAAPAPPPLSQDVPGRADTSQPSARMRGHGEPRRPPCDPLADTIDSSGPSLTLPNGGCLSAVGLPLGPGREALEKALVIQESERRKKLRFHPRQLYLSVKQGELQKVILMLLDNLDPNFQSDQQSKRTPLHAAAQKGSVEICHVLLQAGANINAVDKQQRTPLMEAVVNNHLEVARYMVQRGGCVYSKEEDGSTCLHHAAKIGNLEMVSLLLSTGQVDVNAQDSGGWTPIIWAAEHKHIEVIRMLLTRGADVTLTDNEENICLHWASFTGSAAIAEVLLNARCDLHAVNYHGDTPLHIAARESYHDCVLLFLSRGANPELRNKEGDTAWDLTPERSDVWFALQLNRKLRLGVGNRAIRTEKIICRDVARGYENVPIPCVNGVDGEPCPEDYKYISENCETSTMNIDRNITHLQHCTCVDDCSSSNCLCGQLSIRCWYDKDGRLLQEFNKIEPPLIFECNQACSCWRNCKNRVVQSGIKVRLQLYRTAKMGWGVRALQTIPQGTFICEYVGELISDAEADVREDDSYLFDLDNKDGEVYCIDARYYGNISRFINHLCDPNIIPVRVFMLHQDLRFPRIAFFSSRDIRTGEELGFDYGDRFWDIKSKYFTCQCGSEKCKHSAEAIALEQSRLARLDPHPELLPELGSLPPVNT", "values": [{"measurement": "LC-MS/MS of tryptic digests of Flag-METTL3: mono- or di-methyl-lysine (Kme) sites", "result": "four mono- or di-methyl-lysine (Kme) sites in the C-terminus of METTL3"}, {"measurement": "lysine methylation of immunoprecipitated Flag-METTL3, immunoblotting with an anti-mono- or di-methylysine antibody", "result": "METTL3 was methylated"}]}
